T1: TFAM (human, UniProt Q00059 43-245)
T1 sequence: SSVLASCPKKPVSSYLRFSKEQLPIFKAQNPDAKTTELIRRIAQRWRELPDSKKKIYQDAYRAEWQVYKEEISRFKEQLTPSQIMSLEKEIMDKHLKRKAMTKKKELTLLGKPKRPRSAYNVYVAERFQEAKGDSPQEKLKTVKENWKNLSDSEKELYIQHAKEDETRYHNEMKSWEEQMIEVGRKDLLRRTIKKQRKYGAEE

B1: LSP -41 to +10 (dsDNA)
DNA 1: TGTGTTAGTTGGGGGGTGACTGTTAAAAGTGCATACCGCCAAAAGATAAAA
DNA 2: TTTTATCTTTTGGCGGTATGCACTTTTAACAGTCACCCCCCAACTAACACA
B2: LSP -41 to -12 upstream fragment (dsDNA)
DNA 1: TGTGTTAGTTGGGGGGTGACTGTTAAAAGT
DNA 2: ACTTTTAACAGTCACCCCCCAACTAACACA

Assays:
[1] = molecular target: POLRMT;TFAM (human;human, UniProt O00411;Q00059 43-1230;43-245, |); test: fluorescence anisotropy
POLRMT;TFAM, sequence (O00411 43-1230, one chain of several): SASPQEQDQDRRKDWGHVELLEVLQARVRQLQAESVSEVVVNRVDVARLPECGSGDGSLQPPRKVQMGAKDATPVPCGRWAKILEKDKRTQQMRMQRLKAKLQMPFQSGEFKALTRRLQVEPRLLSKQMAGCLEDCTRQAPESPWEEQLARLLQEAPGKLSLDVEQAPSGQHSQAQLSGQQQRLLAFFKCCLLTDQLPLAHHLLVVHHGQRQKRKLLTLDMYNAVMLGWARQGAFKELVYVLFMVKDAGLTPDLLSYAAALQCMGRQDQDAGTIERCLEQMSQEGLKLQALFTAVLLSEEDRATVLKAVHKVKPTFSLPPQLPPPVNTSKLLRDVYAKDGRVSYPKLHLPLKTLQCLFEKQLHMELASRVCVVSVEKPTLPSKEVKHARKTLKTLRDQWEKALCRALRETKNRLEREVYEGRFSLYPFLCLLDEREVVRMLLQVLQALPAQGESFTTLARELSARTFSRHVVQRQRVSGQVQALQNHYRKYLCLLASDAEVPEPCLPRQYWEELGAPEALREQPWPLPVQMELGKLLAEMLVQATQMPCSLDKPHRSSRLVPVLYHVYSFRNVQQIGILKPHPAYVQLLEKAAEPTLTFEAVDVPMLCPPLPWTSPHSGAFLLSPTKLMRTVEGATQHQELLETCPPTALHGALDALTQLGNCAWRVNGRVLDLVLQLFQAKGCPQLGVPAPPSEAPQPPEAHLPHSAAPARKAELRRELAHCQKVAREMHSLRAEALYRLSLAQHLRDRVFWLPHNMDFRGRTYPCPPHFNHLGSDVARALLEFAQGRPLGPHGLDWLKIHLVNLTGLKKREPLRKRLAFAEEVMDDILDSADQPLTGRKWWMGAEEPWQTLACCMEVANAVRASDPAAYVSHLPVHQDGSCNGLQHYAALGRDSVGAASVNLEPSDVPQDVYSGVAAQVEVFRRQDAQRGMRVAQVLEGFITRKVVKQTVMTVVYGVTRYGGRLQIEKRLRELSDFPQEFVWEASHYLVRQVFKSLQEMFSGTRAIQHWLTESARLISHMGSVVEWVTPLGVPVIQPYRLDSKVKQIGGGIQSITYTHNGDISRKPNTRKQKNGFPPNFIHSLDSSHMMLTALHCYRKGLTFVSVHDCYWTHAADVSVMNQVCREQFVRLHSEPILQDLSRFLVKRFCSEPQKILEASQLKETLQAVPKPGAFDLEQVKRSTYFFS

[2] = molecular target: T1, TFAM; test: fluorescence anisotropy
[3] = molecular target: POLRMT;TFAM;TFB2M (human;human;human, UniProt O00411;Q00059;Q9H5Q4 43-1230;43-245;21-396, ||); test: fluorescence anisotropy
POLRMT;TFAM;TFB2M, sequence (O00411 43-1230, chain 1 of 2): as the sequence (O00411 43-1230, one chain of several) above
POLRMT;TFAM;TFB2M, sequence (Q9H5Q4 21-396, chain 3 of 2): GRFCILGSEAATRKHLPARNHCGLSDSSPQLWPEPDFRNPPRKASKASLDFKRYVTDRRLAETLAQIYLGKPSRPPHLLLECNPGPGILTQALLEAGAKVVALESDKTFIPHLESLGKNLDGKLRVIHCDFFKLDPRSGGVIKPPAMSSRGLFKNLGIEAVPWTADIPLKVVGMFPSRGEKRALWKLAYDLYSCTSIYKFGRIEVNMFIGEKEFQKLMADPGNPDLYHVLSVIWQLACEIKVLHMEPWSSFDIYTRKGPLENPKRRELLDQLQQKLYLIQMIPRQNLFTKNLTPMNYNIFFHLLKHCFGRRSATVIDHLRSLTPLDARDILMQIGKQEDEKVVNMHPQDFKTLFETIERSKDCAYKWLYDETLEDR

[4] = molecular target: T1, TFAM; test: EMSA
[5] = molecular target: POLRMT (human, UniProt O00411 43-1230); test: fluorescence anisotropy
POLRMT, sequence (O00411 43-1230): as the sequence (O00411 43-1230, one chain of several) above

[6] = molecular target: POLRMT;TFB2M (human;human, UniProt O00411;Q9H5Q4 43-1230;21-396, |); test: fluorescence anisotropy
POLRMT;TFB2M, sequence (O00411 43-1230, chain 1 of 2): as the sequence (O00411 43-1230, one chain of several) above
POLRMT;TFB2M, sequence (Q9H5Q4 21-396, chain 2 of 2): as the sequence (Q9H5Q4 21-396, chain 3 of 2) above

Binder	Kd [1] [nM]	Kd [2] [nM]	Kd [3] [nM]	binding result [4]	Kd [5] [nM]	Kd [6] [nM]
B1	3	7	4	–	–	–
B2	–	–	–	binds	8	5
